Drawing on PMC8203652, “Facile fabrication of antibacterial and antiviral perhydrolase-polydopamine composite coatings” (Scientific Reports, 2021), this text covers Km and kcat for one protein.

Substrate in the data set: CC(=O)OCC(C)OC(C)=O
Kind of data set: purified protein. It counts as biochemical, Mycolicibacterium smegmatis. As to conditions: free enzyme; 200 mM H2O2 constant, PGD 3-100 mM, PBS; apparent (two-substrate reaction).

B1: AcT (perhydrolase S54V) (Mycolicibacterium smegmatis MC2 155; S54V) (protein)
chain: MAKRILCFGDSLTWGWVPVEDGAPTERFAPDVRWTGVLAQQLGADFEVIEEGLVARTTNIDDPTDPRLNGASYLPSCLATHLPLDLVIIMLGTNDTKAYFRRTPLDIALGMSVLVTQVLTSAGGVGTTYPAPKVLVVSPPPLAPMPHPWFQLIFEGGEQKTTELARVYSALASFMKVPFFDAGSVISTDGVDGIHFTEANNRDLGVALAEQVRSLL
notes: synthetic gene in pET28a, N-terminal His8 tag and thrombin site (LVPRGS), expressed in E. coli BL21(DE3), Ni-NTA purified; MW 180 kDa printed; S54V printed in the introduction only
As for B1, the Km is on record as 13 mM and the kcat was determined as 4700 s⁻¹.

As a reminder, the Km is the concentration of substrate that gives half-maximal velocity. As usually defined, the kcat is the maximal rate divided by the concentration of active sites.
